Measured values: PMC6788708, “Occurrence and stability of hetero-hexamer associations formed by β-carboxysome CcmK shell components” (PLoS ONE, 2019)
Where “and” joins values, the source holds several entries; their conditions need not be identical. Identical values can stand only once.

B1: CcmK4 (Synechocystis sp. PCC6803), His4 tag removed by TEV protease (natural protein, UniProt P73407 1-112, looked up)
chain: MSAQSAVGSIETIGFPGILAAADAMVKAGRITIVGYIRAGSARFTLNIRGDVQEVKTAMAAGIDAINRTEGADVKTWVIIPRPHENVVAVLPIDFSPEVEPFREAAEGLNRR
notes: CcmK4, BMC-H carboxysome shell protein of Synechocystis sp; PCC 6803; In native MS it came from His4-K4 co-expressed with K3-FLAG; The untagged K4 homo-hexamer of the exchange experiment was made from a His4-tagged K4 expressed alone; Residues left after TEV cleavage are in S1 List; also called untagged K4; TEV-untagged His4-K4; source: E. coli BL21(DE3), TALON-purified, tag removed with TEV …

Legend:
[1] = target: the molecule itself; assay: native MS; TALON-purified co-expressed samples, tags removed with TEV protease; 150 mM ammonium acetate pH 8; positive-ion native ESI-MS with collision induced dissociation of selected hexamers
[2] = target: the molecule itself; assay: crystal structure; pIsep-FPLC fractions of His4-CcmK4/CcmK3-FLAG at 2.9 mg/mL; 22% PEG 4000, 0.2 M ammonium sulfate, 0.1 M sodium acetate pH 4.6, 12 C; only CcmK4 found in the crystal
[3] = target: T1, CcmK2 (Synechocystis sp. PCC6803), FLAG tag removed by TEV protease (Synechocystis sp. PCC6803, UniProt P72761 1-103); assay: native MS; TALON-purified co-expressed samples, tags removed with TEV protease; 150 mM ammonium acetate pH 8; positive-ion native ESI-MS with collision induced dissociation of selected hexamers; conditions: both partners purified
T1 construct: CcmK2, BMC-H carboxysome shell protein of Synechocystis sp; PCC 6803; monomer masses in native MS indicate loss of the first methionine; Residues left after TEV cleavage are in S1 List; source: E. coli BL21(DE3), co-expressed with K1-His4, co-purified on TALON, tag removed with TEV protease; not shown: FLAG, C-terminal, cleaved
T1 sequence (looked up): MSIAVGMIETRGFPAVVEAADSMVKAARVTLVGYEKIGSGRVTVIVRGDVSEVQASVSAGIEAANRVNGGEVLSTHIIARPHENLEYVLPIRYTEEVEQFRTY

[4] = target: B1; assay: as above; conditions: both partners purified

B1
stoichiometry N [1]: 6 subunits

B2: His4-CcmK4 (Synechocystis sp. PCC6803 CcmK4, N-ter His4 tag) (natural protein, UniProt P73407 1-112, looked up)
chain: MSAQSAVGSIETIGFPGILAAADAMVKAGRITIVGYIRAGSARFTLNIRGDVQEVKTAMAAGIDAINRTEGADVKTWVIIPRPHENVVAVLPIDFSPEVEPFREAAEGLNRR
notes: CcmK4, BMC-H carboxysome shell protein of Synechocystis sp; PCC 6803; The crystallised sample came from His4-K4/K3-FLAG; no tag removal is told for it; also called His4-K4; source: E. coli BL21(DE3), co-expressed (pET26b-based plasmid, two or four cassettes), soluble fraction of the lysate; TALON-purified (pIsep-FPLC for crystallisation); not shown: His4, N-terminal, kept
stoichiometry N [2]: 6 subunits

B3: CcmK1 (Synechocystis sp. PCC6803), His4 tag removed by TEV protease (natural protein, UniProt P72760 1-111, looked up)
chain: MSIAVGMIETLGFPAVVEAADSMVKAARVTLVGYEKIGSGRVTVIVRGDVSEVQASVTAGIENIRRVNGGEVLSNHIIARPHENLEYVLPIRYTEAVEQFREIVNPSIIRR
notes: CcmK1, BMC-H carboxysome shell protein of Synechocystis sp; PCC 6803; monomer masses in native MS indicate loss of the first methionine; In native MS it came from K1-His4 co-expressed with K2-FLAG; Residues left after TEV cleavage are in S1 List; also called untagged K1; source: E. coli BL21(DE3), TALON-purified, tag removed with TEV protease; not shown: His4, C-terminal, cleaved
stoichiometry N [3]: 0.2 K1:K2 in the hexamer (1:5) and 2 K1:K2 in the hexamer (4:2)

B4: CcmK3 (Synechocystis sp. PCC6803), FLAG tag removed by TEV protease (natural protein, UniProt P73406 1-103, looked up)
chain: MPQAVGVIQTLGFPSVLAAADAMLKGGRVTLVYYDLAERGNFVVAIRGPVSEVNLSMKMGLAAVNESVMGGEIVSHYIVPNPPENVLAVLPVEYTEKVARFRT
notes: CcmK3, BMC-H carboxysome shell protein of Synechocystis sp; PCC 6803; monomer mass agrees with loss of the first methionine; Residues left after TEV cleavage are in S1 List; also called TEV-untagged K3-FLAG; source: E. coli BL21(DE3), co-expressed with His4-K4, co-purified on TALON, tag removed with TEV protease; not shown: FLAG, C-terminal, cleaved
stoichiometry N [4]: 0.2 K3:K4 in the hexamer (1:5) and 0.5 K3:K4 in the hexamer (2:4)
